One test concerns hippocampal neurocytes. The test is described as follows: Apoptosis-inhibitory effect in vivo, transient forebrain ischemia, MK administration after the ischemic injury. The following applies: counted seven days after injury. Set-up: species or system Mongolian gerbil. As to the method:
MK (2.0 μg) was injected into the ventricle of a Mongolian gerbil transient forebrain ischemia model 2, 4, 6, 12, or 24 hours after the ischemic injury. The numbers of surviving hippocampal neurocytes were counted seven days after the ischemic injury (FIG. 16). When MK was administered at 2 hours after the injury, the number of surviving neurocytes decreased, compared to the Sham-op group, while it was considerably higher than the saline administrated group.
The numbers of surviving hippocampal neurocytes in the groups administered 2, 4, 6, 12, or 24 hours after the ligation were 120±36 (n=4), 90±23 (n=6), 80±13 (n=6), 86±34 (n=6), and 93±22 (n=4) cells/mm, respectively (FIG. 16).

Test [1] has as its system renal uriniferous tubule cells. Description: Inhibitory effect on cisplatin-induced apoptosis in renal uriniferous tubule cells of MK knockout mice. Format: in vivo, mouse. The protocol:
Heterozygous 129/Sv knockout mice (male, 8- to 12-week old) in which parts of exons 2 and 3 of the MK gene were destroyed (Biochemistry 7, 1996, Volume 68, pp. 1239, 4-p-1244) were divided into two groups; the saline administration group and the MK administration groups (14 individuals each). As a control group, the untreated wild-type mice (four individuals) were prepared. Dosage of MK was 200 μg/kg and that of saline was 10 ml/kg.
MK or saline was intraperitoneally administered to the mice in two groups in the morning and cisplatin 9.3 mg/kg was intraperitoneally administered to the mice in two groups in the afternoon of the same day (this day is Day 0).
In the morning of Day 1, MK or saline was interperitoneally administered to each mouse in the same manner as on […].
On Day 2, four mice were selected from each group (the untreated wild-type mice group and the two treated groups) to collect urine and whole blood. Clots in the collected blood were retracted for 1 hour at 37° C., and centrifuged (4° C., 8000 rpm, 10 min) to separate the serum. […]
Blood urea nitrogen (BUN) and serum creatinine frequently used as indexes of renal dysfunction in day-to-day diagnosis were measured and proteins in urine were simply quantified. […]
On Day 4, DNA fragmentation in the kidney paraffin sections representating strong damage was analyzed by the TUNEL method (In situ Apoptosis Detection Kit; TaKaRa).

B1: MK: midkine, a heparin-binding growth and differentiation factor; human MK protein (SEQ ID NO: 3; or recombinant, secreted by yeast) (protein, UniProt P21741 21-143, looked up)
Midkine: VAKKKDKVKKGGPGSECAEWAWGPCTPSSKDCGVGFREGTCGAQTQRIRCRVPCNWKKEFGADCKYKFENWGACDGGTGTKVRQGTLKKARYNAQCQETIRVTKPCTPKTKAKAKAKKGKGKD
As for B1, the “numbers of surviving hippocampal neurocytes” value with hippocampal neurocytes (MK 2.0 μg into the ventricle 2 hours after the ligation) turned out to be 120±36 cells/mm; with hippocampal neurocytes (MK 2.0 μg into the ventricle 4 hours after the ligation), 90±23 cells/mm; with hippocampal neurocytes (MK 2.0 μg into the ventricle 6 hours after the ligation), 80±13 cells/mm; in the test with hippocampal neurocytes (MK 2.0 μg into the ventricle 12 hours after the ligation), 86±34 cells/mm; in the test with hippocampal neurocytes (MK 2.0 μg into the ventricle 24 hours after the ligation), 93±22 cells/mm. The “number of TUNEL positive cells in kidney paraffin sections” value in test [1] (Day 4, MK 200 μg/kg i.p., cisplatin 9.3 mg/kg i.p., versus saline administrated group) is reported as “significantly decreased”. Besides, the “renal dysfunction caused by cisplatin (BUN, serum creatinine, urine protein, HE sections)” value in test [1] (MK 200 μg/kg i.p. daily, cisplatin 9.3 mg/kg i.p. on Day 0) is on record as “effect of MK for relieving renal dysfunction caused by cisplatin was observed”.

Values taken from patent US20050079151A1, “Therapeutic agents for apoptosis-related diseases” (priority 1998, published 2005).
